Test: yeast display, Sf9 membrane polyspecificity reagent, FACS + sequencing; frameworks hold sequencing errors
Procedure, shortened: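 Synthetic nanobody libraries on Saccharomyces cerevisiae BJ5465 were galactose-induced for 36–48 hours, stained 1 hour at 4 °C with 10% biotinylated, detergent-solubilized Sf9 membrane reagent and enriched on streptavidin microbeads. FACS then separated cells into low and high (top ~1%) gates by anti-HA (expression) and streptavidin (reagent binding) fluorescence. Genes were colony-PCR amplified, MiSeq 2 × 250 sequenced and CDR-length filtered. A clone's polyreactivity label is that of its gate of origin.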
With “QVQLVESGGGFFQAGGSLRLSCAASGNTFGINAMRWYREAPGKERELVAAISWSGDRTYYADSVKGRFTISRDNAKNTVYLQMNSLKPEDTAVYYCAAGKYRFTYYALEYDYWGQGTQVTVSS” the “polyreactivity (PSR sort gate)” value was “low polyreactivity”. With “QVQLVESGGGFVQAGGSLRLICAASGSILHSYSMGWYRQAPGKERELVAAISGSGGSTYYADSVKRRFTISRDNAKNTVYLQMNSLKPEDTAVYYCAAVWSRADRYYYWGQGTQVTVSS” the “polyreactivity (PSR sort gate)” value was “low polyreactivity”. In the case of “QVQLVESGGGFVQAGGSLRLRCAASGRTFGWYAMGWYRQAPGKERELVAAITWRGGSTYYADSVKGRFTISRDNAKNTVYLQMNSLKPEDTAVYYCAAAAEKRSYYWGQGTQVTVSS”, the “polyreactivity (PSR sort gate)” value is reported as “high polyreactivity”. For “QVQLVESGGGFVQAGGSLRLSCAASGFIFRVYAMGWYRPAPGKERELVAAISKRGGSTFYADSVKGRFTISRDNANNTVYLQMNSLKPEDTAVYDCAASARLGYDYWGQGTQVTVSS”, the “polyreactivity (PSR sort gate)” value was “high polyreactivity”. With “QVQLVESGGGFVQAGGSLRLSCAASGFTFGWYALGWYRQAPGKERELVAAMSFGGSRTYYADSVKGRFSISRDNAKNTVYLQLNILNPEDTAVYYCNVVVGSYSANARSHYWGQGTEVTVSS” the “polyreactivity (PSR sort gate)” value was “high polyreactivity”. For “QVQLVESGGGFVQAGGSLRLSCAASGGTFYRYAMGWYRQAPGKERELVAVISRGLRTNYADSVKGRFTISRDNAKNTVYFQMNSLQPEDTAVYYCAAHQYRVYRHGFDYWGQGTQVTVSS”, the “polyreactivity (PSR sort gate)” value was “high polyreactivity”. For “QVQLVESGGGFVQAGGSLRLSCAASGIIVRANAMGWYRQAPGKERELVAAISSSGGSTFYADSVKGRFTISLDNAKNYVYLQMNSLNPEDTAVYYCAAGRTKFAWSEYEYWGQGTQVTVSS”, the “polyreactivity (PSR sort gate)” value was “low polyreactivity”. With “QVQLVESGGGFVQAGGSLRLSCAASGNIFESYGMGWYRHAPGKERELVATINSSSGSTYYADSVKGRFTISRDNAKNTVYLQMNSLKPEDTAVYYCAAEWYPYPWGYGYWGQGTQVTVSS” the “polyreactivity (PSR sort gate)” value was “low polyreactivity”. With “QVQLVESGGGFVQAGGSLRLSCAASGRTFPEYDMGRYRQAPGKERELVAAISTSGGSTYYADSVKGRFTISRDIAKNTVYLQMNSLKPEDTGVYYCAAQVTSIWGFTYAYRYDYWGQGTHVTVSS” the “polyreactivity (PSR sort gate)” value was “low polyreactivity”. For “QVQLVESGGGFVQAGGSLRLSCAASGSIFDQYAMGWSRQAPGKERELVAGISSSGSTYADSVKGRFTISRDNAKNTVYLQMNSLKPEDTAVYSCAKDYGVLGGGTGSDRMDYWGQGSQVTVSS”, the “polyreactivity (PSR sort gate)” value was “low polyreactivity”. For “QVQLVESGGGFVQAGGSLRLSCAASGSTFHGYAMGWYRQEPGKERELVAAITSSGGSTYYADSVKGRFTISRDNAKNTVYLLMNILNPEVTEVYYCAARRYGWGRAQSSASYDHWGQGTQVTVSS”, the “polyreactivity (PSR sort gate)” value was “high polyreactivity”. With “QVQLVESGGGFVQAGGSLRLSCAASGSTFRYYAMGWYRQAPGTEREFVAAISWSGSSTYYADSVKGRFTISRDNAKNTVYLQMNSLKPEDTAVYYCAARYRYYGYDYWGQGTQVTVSS” the “polyreactivity (PSR sort gate)” value was “high polyreactivity”. In the case of “QVQLVESGGGFVQAGGSLRLSCAASGSTFSPNGMGWYRPAPGKERELVAAISSSTGSTNYADSVKGRFTISRDNAKNTVYLQMNSLKPEDTAVYYCAVDPYVHWTTKLYDYWGQGSQVTVSS”, the “polyreactivity (PSR sort gate)” value is reported as “low polyreactivity”. With “QVQLVESGGGFVQAGGSLRLSCAASGYIFEWNAMGWYRQAPGKERELVASIDSDGSTYYADSVKGRFTISRDNAKNTVYLQMNSLKPEDTAVYYCNARGYTGGEVLAEYDYWGQGTQVTVSS” the “polyreactivity (PSR sort gate)” value was “low polyreactivity”. In the case of “QVQLVESGGGFVQAGGSLRLSCAGSGRIYYRYAMGWYSQERGKERELVAAISGSVGSTYADYVKGRFTISRDNAKNTVYLQMKSLKPEDTAFYYCARETYGRYGAYDYWGQGTQVTVSS”, the “polyreactivity (PSR sort gate)” value is reported as “low polyreactivity”. With “QVQLVESGGGFVQAGGSLRLSSAASGLTFAAYAMGWSRQAPGKERELVASISRRGGSTYYADSVKGRFTISRDNAMNTVYLQMNSLKPEDTAVYYCAARSFWGGLRYDYWGQGTQVTVSS” the “polyreactivity (PSR sort gate)” value was “high polyreactivity”. With “QVQLVESGGGFVQAGGSLRLSSAASGSTLPGYAMGSYRQAPGKERELVAGISTRGGNTYYADSVKGRFTISRDNAKNTVYLPMNSLKPEDTAVYYCAAGIPRQAYKFYWGQGTQVTVSS” the “polyreactivity (PSR sort gate)” value was “high polyreactivity”. For “QVQLVESGGGFVQAGRSLRISSAPSGLMFLGKAMGWYRPAPGKERDLVGGIRALGGTTSYAYSVKGRFTISRDNAKNTVFLQLICKKPEDTELYVCAASYVSSRYFVLRHGDYYWGKGTQVTVSS”, the “polyreactivity (PSR sort gate)” value was “low polyreactivity”. With “QVQLVESGGGFVQAGVSLRLSCAASGLILVPNTMGWYRQAPGKERELVATITNGGSTNYADSVKGRFTISRDNAKNTVYLQMNSLKPEDTAVSYCNADHSYHIASTRHVDYWGQGTQVTVSS” the “polyreactivity (PSR sort gate)” value was “low polyreactivity”. For “QVQLVESGGGIFQAGGSLRLSCSASGNTLVIYAMGWYRQAPVKESELVAAISRAGGTTYYADSVKGRFTISRDKAKNTVYLQMNSLKPEDTEVFYCNAGDHMRKRYGISATWGYGYGYWGQGSQVTVSS”, the “polyreactivity (PSR sort gate)” value was “high polyreactivity”. For “QVQLVESGGGILQAGGSLRLSCAASGFILSPNTMAWSRQAPGKERELVAAISSDVSTYADSVKGRFTISRDNAKNTVYLQINSLKPEDTAVYYCNADDFGYASYEYWGQATQVTVSS”, the “polyreactivity (PSR sort gate)” value was “low polyreactivity”. In the case of “QVQLVESGGGILQAGGSLRLSCAASGSTFSGYAMGWYRQATGKERELVAAISSSGGSTYYADSVKGRFTISRDNAKNTVYLKMNSQKPEDTAVYYCAKRRYGKHYTGLTSYYYWGHGTQVTVSS”, the “polyreactivity (PSR sort gate)” value is reported as “high polyreactivity”. In the case of “QVQLVESGGGIVHAGGSLGLSCAASGRIFYSNAMGWYRQAPGKERELVAAISWNGGRTYYADSVKGRFTISRDNAKNTVYLQMKSLKPEDHAVYYCAVRYARQYYYRSGAYASRYLYNYWGQGTQVTVSS”, the “polyreactivity (PSR sort gate)” value is reported as “high polyreactivity”. In the case of “QVQLVESGGGIVHAGGSLRLSCAASGIIFLFYAMGWYRQARVKERELVASITWSGGSTYYADSVKGRFTISRDNAKNNVFLQMLSLKPEDTSVYYCAASVNIISYLVHSEFLGGELDYWGQGTQVTVSS”, the “polyreactivity (PSR sort gate)” value is reported as “low polyreactivity”. In the case of “QVQLVESGGGIVKAGGSLRISCAASGSTFIVNAMGWYRQAPGKERELVAAITEDGDTTYYADSVKGRFTISRDNAKNTVYLQMNSLKPEDTAVYFCAAETYYLDDYWGQGTQVTVSS”, the “polyreactivity (PSR sort gate)” value is reported as “high polyreactivity”. For “QVQLVESGGGIVPAGGSLRLSCAASGLIFKTYTMGWSRQAPGKEREFVAAITTSGGSTYYADSVKGRFTISRDNAKNTVYLQMNSLKPEDTAVYSCGAVWWKSFQGSSYRMNYWGQGTQVTVSS”, the “polyreactivity (PSR sort gate)” value was “high polyreactivity”. For “QVQLVESGGGIVPAGGSLRLSCAASGLTFRFNAMGWYRQAPGKERELVADITVSGGRTYYADSVKGRFTISRDNAKNTVYLQMNSLKPEDTAVYYCARRRTVGVTEPFSRGYDYWGQGTQVTVSS”, the “polyreactivity (PSR sort gate)” value was “low polyreactivity”. In the case of “QVQLVESGGGIVQAGGSLRFSCAASGGTFYRYAMGWYRLAPGNERELVAAISSSGGSTYYAVSVKGRFTISRDNAKNTVYLQMNSLKPEDTAVYYCAAYSFQSHNFDYWGQGSQVTVSS”, the “polyreactivity (PSR sort gate)” value is reported as “high polyreactivity”. For “QVQLVESGGGIVQAGGSLRFSCAASGSTFLYYAMGWYRLAPGKETEFVADISFSGGSTYYADSVKGRFTSSRDNAKNTVYLQMNSLKPEDTGVYNCAARKKEYKAGNYWGQGTQVNVSS”, the “polyreactivity (PSR sort gate)” value was “low polyreactivity”. With “QVQLVESGGGIVQAGGSLRISCAASGSIFFGYAMGWYRPATGKERELVADITVGGGSPFYADSVKGRFTISRDNEKNTVYLQMNSLKPDDTAVYYCADDYYTQWLTRYDYWGQGTQVTLSS” the “polyreactivity (PSR sort gate)” value was “low polyreactivity”.
